Measurements as given in patent US20240270846A1 (published 2024).
Numbering of substitutions follows the chain as printed. Names and notes keep the numbering of the source.

T1: cynomolgus monkey CD137 (cynomolgus monkey, UniProt Q07011 24-186 (human entry), limits assumed)
T1 construct: Soluble analyte in the Biacore assay; also called cyno CD137
T1 chain: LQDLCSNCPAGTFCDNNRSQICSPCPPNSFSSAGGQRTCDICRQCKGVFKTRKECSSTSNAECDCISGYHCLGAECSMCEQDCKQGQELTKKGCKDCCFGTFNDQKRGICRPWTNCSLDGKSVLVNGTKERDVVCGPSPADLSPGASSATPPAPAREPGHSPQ

B1: GLS3000 V94W one-amino acid altered one-arm antibody (CE115HA000-pE22Hh / Kn010G3 / GLS3000 V94W-kappa) (antibody, human IgG1, kappa, L234A L235A, N297A, name in Kabat numbering)
heavy: QVQLVESGGGVVQPGRSLRLSCAASGFTFSNAWMHWVRQAPGKGLEWVAQIKAKSNNYATYYAESVKGRFTISRDDSKNSLYLQMNSLKTEDTAVYYCRYVHYGAYYGVDAWGQGTTVTVSSASTKGPSVFPLAPSSKSTSGGTAALGCLVKDYFPEPVTVSWNSGALTSGVHTFPAVLQSSGLYSLSSVVTVPSSSLGTQTYICNVNHKPSNTKVDKKVEPKSCDKTHTCPPCPAPEAAGGPSVFLFPPKPKDTLMISRTPEVTCVVVDVSHEDPEVKFNWYVDGVEVHNAKTKPREEQYASTYRVVSVLTVLHQDWLNGKEYKCKVSNKALPAPIEKTISKAKGQPREPQVYTLPPSRCELTKNQVSLSCAVKGFYPSDIAVEWESNGQPENNYKTTPPVLDSDGSFFLVSKLTVDKSRWQQGNVFSCSVMHEALHNHYTQKSLSLSPDYKDDDDK
chain: EPKSSDKTHTCPPCPAPELLGGPSVFLFPPKPKDTLMISRTPEVTCVVVDVSHEDPEVKFNWYVDGVEVHNAKTKPREEQYNSTYRVVSVLTVLHQDWLNGKEYKCKVSNKALPAPIEKTISKAKGQPREPQVCTLPPSRDELTKNQVSLWCLVKGFYPSDIAVEWESNGQPENNYKTTPPVLDSDGSFFLYSKLTVDKSRWQQGNVFSCSVMHEALHNRYTQKSLSLSP
light: DIVMTQSPLSLPVTPGEPASISCRSSQSLVHSNRNTYLHWYQQKPGQAPRLLIYKVSNRFSGVPDRFSGSGSGTDFTLKISRVEAEDVGVYYCGQGTQWPYTFGQGTKLEIKRTVAAPSVFIFPPSDEQLKSGTASVVCLLNNFYPREAKVQWKVDNALQSGNSQESVTEQDSKDSTYSLSSTLTLSKADYEKHKVYACEVTHQGLSSPVTKSFNRGEC
notes: One-arm antibody; substitution position in Kabat numbering; also called L chain altered form, Kabat 94 V to W
B2: GLS3000 V94Y one-amino acid altered one-arm antibody (CE115HA000-pE22Hh / Kn010G3 / GLS3000 V94Y-kappa) (antibody, human IgG1, kappa, L234A L235A, N297A, name in Kabat numbering)
heavy: B1 heavy
chain: B1 chain
light: B1 light with W99Y
notes: One-arm antibody; substitution position in Kabat numbering; also called L chain altered form, Kabat 94 V to Y
B3: dBBDu139 (antibody, human IgG1, V domains shown)
VH: QVQLVESGGGLVQPGRSLRLSCAASGFTFSNAWMHWVRQAPGKGLEWVAQIKDRGNAYNAYYAESVKGRFTISRDDSKNSIYLQMNSLKTEDTAVYYCRFVHYRHPLLHIQYGVDAWGQGTTVTVSS
VL: DIVMTQSPLSLPVTPGEPASISCRSSQSLVHSNRNTYLHWYQQKPGQAPRLLIYKVSNRFSGVPDRFSGSGSGTDFTLKISRVEAEDVGVYYCGQGTQVPYTFGQGTKLEIK
notes: IgG: VH joined to human IgG1 CH1-Fc, GLS3000 as light chain
B4: dBBDu197 (antibody, human IgG1, V domains shown)
VH: QVQLVESGGGLVQPGRSLRLSCAASGFTFSNAWMHWVRQAPGKGLEWVAQIKDRSNAYAAYYAPSVKGRFTISRDDSKNSIYLQMNSLKTEDTAVYYCHYVHYASASTVLPAFGVDAWGQGTTVTVSS
VL: B3 VL
notes: as for B3
B5: dBBDu123 (antibody, human IgG1, V domains shown)
VH: B4 VH with S55A, A57S, A59N, A104S, S105A, V109L, A112S
VL: B3 VL
notes: IgG: VH joined to human IgG1 CH1-Fc, GLS3000 as light chain; also called DADU01_3_#018; DADU01_3 #018
B6: dBBDu122 (antibody, human IgG1, V domains shown)
VH: B4 VH with N56Q, A57L, P111G, F113Y
VL: B3 VL
notes: IgG: VH joined to human IgG1 CH1-Fc, GLS3000 as light chain; also called DXDU01_3_#072; DXDU01_3 #072
B7: dBBDu121 (antibody, human IgG1, V domains shown)
VH: B4 VH with R54K, S55G, S107A, T108G, V109G, A112G
VL: B3 VL
notes: IgG: VH joined to human IgG1 CH1-Fc, GLS3000 as light chain; also called DXDU01_3_#094; DXDU01_3 #094
B8: dBBDu_186 / dBBDu_L098 (antibody, human IgG1, V domains shown)
VH: B4 VH with A57Q, A60T, S105Q
VL: DIVMTQSPLSLPVTPGEPASISCAASEELVHINRYIFLHWYQQKPGQAPRLLIYKVSNRFIGVPDRFSGSGSGTDFTLKISRVEAEDVGVYYCAQGSQVPFTFGQGTKLEIK
notes: Tested as IgG (human IgG1 constant region, kappa light chain); also called dBBDu186/L098
B9: dBBDu_186 / dBBDu_L106 (antibody, human IgG1, V domains shown)
VH: B4 VH with A57Q, A60T, S105Q
VL: B8 VL with A24S, A25T, V30L, Y35F, S57A, I61M
notes: Tested as IgG (human IgG1 constant region, kappa light chain); also called dBBDu186/L106
B10: dBBDu_186 / dBBDu_L108 (antibody, human IgG1, V domains shown)
VH: B4 VH with A57Q, A60T, S105Q
VL: B8 VL with A24R, A25T, V30L, Y35F, I36T, I61M, Q98A
notes: Tested as IgG (human IgG1 constant region, kappa light chain); also called dBBDu186/L108
B11: dBBDu_193 / dBBDu.L132 (antibody, human IgG1, V domains shown)
VH: B4 VH with A57Q, A60T, A104S, S105A, V109L, A112S
VL: B8 VL with A24Q, A25T, Y35F, I61S, S97T, Q98S
notes: Tested as IgG (human IgG1 constant region, kappa light chain); also called dBBDu193/L132; dBBDu_193/L132
B12: dBBDu_193 / dBBDu.L127 (antibody, human IgG1, V domains shown)
VH: B4 VH with A57Q, A60T, A104S, S105A, V109L, A112S
VL: B8 VL with A24R, V30L, Y35H, S57Y, I61T, S97T, Q98S
notes: Tested as IgG (human IgG1 constant region, kappa light chain); also called dBBDu193/L127; dBBDu_193/L127
B13: dBBDu_167 / dBBDu.L094 (antibody, human IgG1, V domains shown)
VH: B4 VH with R54K, S55G, A57L, S107G, T108G, V109G, A112G
VL: B8 VL with A24Y, V30L, Y35H, F37Y, S57Y, I61N, Q98S
notes: Tested as IgG (human IgG1 constant region, kappa light chain); also called dBBDu167/L094; dBBDu_167/L094
B14: dBBDu_189 / dBBDu_L126 (antibody, human IgG1, V domains shown)
VH: B4 VH with V48I, A57Q, A60T, S105Q, T108S, V109L, A112S
VL: B8 VL with A24R, A25T, V30L, S57Q, I61S, Q98A
notes: Tested as IgG (human IgG1 constant region, kappa light chain); also called dBBDu189/L126
B15: dBBDu_186 / dBBDu_L100 (antibody, human IgG1, V domains shown)
VH: B4 VH with A57Q, A60T, S105Q
VL: B8 VL with A24S, S57Y, I61M, A94G, Q98S
notes: Tested as IgG (human IgG1 constant region, kappa light chain); also called dBBDu186/L100
B16: dBBDu_189 / dBBDu_L119 (antibody, human IgG1, V domains shown)
VH: B4 VH with V48I, A57Q, A60T, S105Q, T108S, V109L, A112S
VL: B8 VL with A24T, E27Q, Y35F
notes: Tested as IgG (human IgG1 constant region, kappa light chain); also called dBBDu189/L119

target: T2, CD3 epsilon homodimer protein (UniProt P07766 23-126); experiment: SPR Biacore T200, CD3 epsilon homodimer immobilised on CM4, one-arm antibody as analyte, single-cycle kinetics; reference unaltered GLS3000 antibody;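 note: CD3 epsilon homodimer attached to the CM4 chip via amine coupling, measured at 25 °C with HBS-EP+ as running buffer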
T2 construct: also called CD3 (CD3 epsilon)
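Throughout, for ELISA signal, free CD3e 125 pmol/well: bead ELISA on streptavidin-coated magnetic beads, with the signal read as well fluorescence 2 min after APS-5 addition.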

Row | Binder | dissociation constant KD(M) ratio of L chain altered form to GLS3000 [ratio]
1 | B1 | 1.81
2 | B2 | 2.45

target: T3, biotin-labeled human CD137 fused to human IgG1 Fc fragment (human, biotin-labeled); experiment: competitive bead ELISA, decrease of signal on biotin-human CD137-Fc with 125 pmol/well free CD3 epsilon peptide against 0
T3 construct: Immobilised on streptavidin beads through biotin; also called human CD137-Fc; biotin-human CD137-Fc

Row | Binder | Signal decrease [%]
3 | B3 | 79.6
4 | B4 | 96.1
5 | B5 | 33
6 | B6 | 30.2
7 | B7 | 49.4

target: T4, human CD3ed (human, UniProt P07766 23-126; P04234 22-105, limits assumed); experiment: SPR Biacore T200, IgG captured on protein A, antigen as analyte, 25 C;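 note: antigens flowed over a CM3 chip for 120 s association, KD derived from ka and kd, running buffer (ACES, NaCl, Tween20, pH 7.4) served as blank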
T4 construct: The construct injected as 'human CD3ed' in the Biacore assay is not defined; also called human CD3 epsilon/delta heterodimer

Row | Binder | Kd [nM] | koff [s⁻¹] | kon [M⁻¹ s⁻¹]
8 | B8 | 1880 | 0.0209 | 11100
9 | B9 | 3090 | 0.0318 | 10300
10 | B10 | 3010 | 0.0408 | 13600
11 | B11 | 2030 | 0.0201 | 9890
12 | B12 | 1510 | 0.0191 | 12600
13 | B13 | 349 | 0.021 | 60200
14 | B14 | 2570 | 0.0281 | 10900
15 | B15 | 3360 | 0.0546 | 16200
16 | B16 | 2060 | 0.0258 | 12500

Target: T1, cynomolgus monkey CD137
Experiment: as above

Row | Binder | Kd [µM] | koff [s⁻¹] | kon [M⁻¹ s⁻¹]
17 | B8 | 134 | 0.00119 | –
18 | B9 | 61.3 | 0.00126 | –
19 | B10 | 16.1 | 0.00361 | 225
20 | B11 | 757 | 0.0061 | –
21 | B12 | 28.1 | 0.00316 | 112
22 | B13 | 6.92 | 0.0748 | 10800
23 | B14 | 3.06 | 0.00247 | 807
24 | B15 | 70.4 | 0.00208 | –
25 | B16 | 35.7 | 0.00122 | –

target: T5, human CD137 (human, UniProt Q07011 24-186); experiment: as above
T5 construct: Soluble analyte in the Biacore assay; also called 4-1BB; hCD137

Row | Binder | Kd [nM] | koff [s⁻¹] | kon [M⁻¹ s⁻¹]
26 | B8 | 2310 | 0.000534 | 231
27 | B9 | 3440 | 0.000447 | 130
28 | B10 | 2410 | 0.00081 | 335
29 | B11 | 4480 | 0.00211 | 471
30 | B12 | 3300 | 0.00145 | 440
31 | B13 | 8430 | 0.0102 | 1210
32 | B14 | 513 | 0.000688 | 1340
33 | B15 | 1910 | 0.000746 | 391
34 | B16 | 2710 | 0.000402 | 148

target: T3, biotin-labeled human CD137 fused to …; experiment: bead ELISA, IgG on biotin-human CD137-Fc on streptavidin beads, no free CD3e

Row | Binder | ELISA signal, free CD3e 0 pmol/well
35 | B3 | 9440
36 | B4 | 54400
37 | B5 | 2750
38 | B6 | 2700
39 | B7 | 3610

target: T3, biotin-labeled human CD137 fused to …; experiment: competitive bead ELISA, IgG on biotin-human CD137-Fc, competitor free CD3 epsilon peptide 125 pmol/well

Row | Binder | ELISA signal, free CD3e 125 pmol/well
40 | B3 | 1920
41 | B4 | 2110
42 | B5 | 1840
43 | B6 | 1880
44 | B7 | 1830
